Source: publication doi:10.1101/2021.05.21.445086

Biological target: mS105 (Chlamydomonas reinhardtii (endogenous in strain CC-4351))
Experiment: cryo-EM structure

mS105 (natural protein) was tested, and the stoichiometry N was 3.
